In US20080176263A1, “Materials and Methods for Efficient and Accurate Detection of Analytes” (University of Florida Research Foundation, Inc., priority 2006, published 2008):
Where “and” joins values, the source holds several entries; their conditions need not be identical. Equal values may be shown once.

What was measured:
substrate TNO211 [1] = experiment: Study #1: time-to-detection of protease activity, cleavage of substrate TNO211 by fluorescence; format: biochemical; details: protease concentrations ≦100 ng/ml
Protocol: 1. Prepare a suitable standard curve diluted in enzyme buffer. Typically, a maximum of 50 ng/ml final protease concentration in the assay is used. Keep on ice until use.
2. Prepare the substrate solution by diluting the Stock Reconstituted Substrate (in DMSO) to 5.56 uM in the desired Assay Buffer (EDTA-free or EDTA-containing) to produce 90 ul of total EDTA-free or EDTA-containing Assay Buffer per well.
3. Pipette 90 ul substrate solution into each well to be assayed.
4. Take an initial fluorescence reading. To minimize interference due to the fluorescence of endogenous proteins in the samples, we routinely use excitation/emission wavelengths of 355/535 nm, respectively.
5. Pipette 10 ul standards, samples, or Enzyme Buffer (BLANK) into each well of the 96-well fluorescence assay plate.
6. Measure the change in fluorescence continuously until the standard range of interest is sufficiently resolved. Protect from light at RT or 37° C. between measurements.
7. Determine the best-fit curve relating the Change in Fluorescence (AF) vs.
[Protease]. […]
One hundred, 10, 1, and 0.1 ng of pronase, MMP-2, MMP-9, and clostridial collagenase were assayed in a total reaction volume of 100 ul for cleavage of substrate TNO211 as detected by fluorescence. The reactions were monitored for approximately one hour after the addition of the proteases.

substrate TNO211 [2] = experiment: Study #3: protease detection sensitivity, visual detection under UV; format: biochemical; details: within 10 minutes; from 17% and 28% of pronase activity
Protocol: To investigate the visual detection limits of pronase, standard curves (1000-0 ng) of the protease were reacted in 50, 100, and 200 uM substrate diluted in the assay buffer. Digital photographs were taken under white light and UV. These observations were compared to those obtained quantitatively using the fluorescence plate reader. The observed detection limits for pronase were used to calculate theoretical detection limits for MMP-2 and MMP-9 (17% and 28% as active as pronase, respectively).

- activity as % of pronase's observed activity (substrate TNO211 [1]): 17±4% and 17%
- theoretical detection limit calculated from pronase limit (substrate TNO211 [2]): approximately 735 ng
B1: MMP-2: protease assayed for cleavage of substrate TNO211 (protein)
chain: YNFFPRKPKWDKNQITYRIIGYTPDLDPETVDDAFARAFQVWSDVTPLRFSRIHDGEADIMINFGRWEHGDGYPFDGKDGLLAHAFAPGTGVGGDSHFDDDELWTLGEGQVVRVKYGNADGEYCKFPFLFNGKEYNSCTDTGRSDGFLWCSTTYNFEKDGKYGFCPHEALFTMGGNAEGQPCKFPFRFQGTSYDSCTTEGRTDGYRWCGTTEDYDRDKKYGFCPETAMSTVGGNSEGAPCVFPFTFLGNKYESCTSAGRSDGKMWCATTANYDDDRKWGFCPDQGYSLFLVAAHEFGHAMGLEHSQDPGALMAPIYTYTKNFRLSQDDIKGIQELYGASPDIDLGTGPTPTLGPVTPEICKQDIVFDGIAQIRGEIFFFKDRFIWRTVTPRDKPMGPLLVATFWPELPEKIDAVYEAPQEEKAVFFAGNEYWIYSASTLERGYPKPLTSLGLPPDVQRVDAAFNWSKNKKTYIFAGDKFWRYNEVKKKMDPGFPKLIADAWNAIPDNLDAVVDLQGGGHSYFFKGAYYLKLENQSLKSVKFGSIKSDWLGC
